Measurements: patent US20200385745
Positions count from the first letter of the chain named. In names and notes the source's numbering stands.

B1: keratinase derived from Brevibacillus parabrevis (CGMCC No. 10798), parent keratinase (protein)
chain: AQTVPYGIPQIKAPAVHAQGYKGANVKVAVLDTGIHAAHPDLNVAGGASFVPSEPNATQDFQSHGTHVAGTIAALDNTIGVLGVAPSASLYAVKVLDRYGDGQYSWIISGIEWAVANNMDVINMSLGGPSGSTALKNTVDTANNRGVVVVAAAGNSGSSGSSSTVGYPAKYDSTIAVANVNSNNVRNSSSSAGPELDVSAPGTSILSTVPSSGYTSYTGTSMASPHVAGAAALILSKNPNLTNSQVRQRLENTATPLGDSFYYGKGLINVQAASN
B2: keratinase double mutant N181D-T218S (protein)
chain: B1 chain with N181D, T218S
B3: keratinase mutant N181D (protein)
chain: B1 chain with N181D
B4: keratinase mutant T218S (protein)
chain: B1 chain with Y217S
B5: keratinase mutant S236C (protein)
chain: B1 chain with S236C

Target: keratin (substrate of the keratinase activity assay)

| Protein | Km [µM] |
| --- | --- |
| B1 | 2100 |
| B2 | 1800 |
| B3 | 1900 |
| B4 | 1500 |
| B5 | 2200 |
